Experimental findings from the DeepSol protein solubility set are described below.

The nature of the data set: soluble on expression in E. coli; label from the status in PepcDB or PDB records.
Consider “MSLTTLKCVMQWTWRKTPERTIEVHKKNVNALKLLLIGSPGREQSYTPRDKRSNMHFLKKLGDFQDLEHTVDALKDWHTREKADAVLGLGDMLGLPGATTVRDERFQKKWHDIFIKDAGLDIPWLMTLGDADSVLSPSSQIRYHYSVQQKNWHMPNDYYTVNFKFGANLTLANGMFEETAFNATVIAINTWDLFVGNPVANNMASWTNKLWWLSEQLYQATQKNSSWIIVMGHHPMLSTGTEGEQARLQNIDDLSKSRRSRGLESFLINTLFMHYQVDAYVSGHDHLMEYNSITDVDRNVTVEGHHHHHH”, for which the “soluble on expression in E. coli” value is listed as “not soluble”. For the sequence “MSLTTRLADIAAQAGVSEATVSRVLNGKPGVAATTRQSVLAALDVLGYERPVRLRQRSEGLVGLITPELENPIFPALAQVIGQALTRQGYTPVLATQTPGGSTEDELTEMLVDRGVAGIIFVSGLHADTSADMQRYDQLRAQGVPFVLVDGFSPKVQAPFISPDDRAAMTLAVTHLVSLGHTRIGLALGPKRFVPVQRKIEGFVRSVQEQLGLSPDDVERELVQHSLYTLEGGQAAATALMDRDCTAVVCASDMMALGAIRAARQRGLDVPKDISVVGFDDSPLIAFTDPPLTTIRKPVPAMGQAAVRTLLEEIGGTPAPHSEFVFMPELVVRGSTASAPGDRNRPEGHHHHHH”, the “soluble on expression in E. coli” value is listed as “soluble”.

“MSLTTRVIALDLDGTLLTPKKTLLPSSIEALARAREAGYQLIIVTGRHHVAIHPFYQALALDTPAICCNGTYLYDYHAKTVLEADPMPVIKALQLIEMLNEHHIHGLMYVDDAMVYEHPTGHVIRTSNWAQTLPPEQRPTFTQVASLAETAQQVNAVWKFALTHDDLPQLQHFGKHVEHELGLECEWSWHDQVDIARGGNSKGKRLTKWVEAQGWSMENVVAFGDNFNDISMLEAAGTGVAMGNADDAVKARANIVIGDNTTDSIAQFIYSHLIEGHHHHHH”: the “soluble on expression in E. coli” value is given as “soluble”. As for “MSLTVIITGASSGIGAGLAKSFAADGHLVIACGRDASRLAALQQLSPNISVRLFDMTDRDACRQALTGCFADLIILCAGTCEYLDHGQVDAALVERVMATNFLGPVNCLAALQTQLEAGDRVVLVSSMAHWLPFPRAEAYGASKAALTWFANSLRLDWEPKGVAVTVVSPGFVDTPLTRKNDFAMPGRVSVDRAVAAIRHGLAKGKNHIAFPTGFSLALRLLASLPSGIQRLLLRRMVRSEGHHHHHH”, the “soluble on expression in E. coli” value is recorded as “soluble”. For “MSLTVRFTESVSKQDLDALFEWAKASYGAESCWKTLYLNGLPLGNLSPEWVERVKKDWEAGCSESSDGIFLNADGWPDMGGRLQHLALGWHCAGLLDGWRNECFDLTDGGGNPLFTLERAAFRPFGLLSRAVHLNGLTESDGRWHFWIGRRSPHKAVDPNKLDNTAAGGVSGGEMPSEAVCRESSEEAGLDKTLLPLIRPVSQLHSLRSVSRGVHNEILYVFDAVLPETFLPENQDGEVAGFEKMDIGGLLDAMLSGNMMHDAQLVTLDAFCRYGLIDAAHPLSEWLDGIREGHHHHHH”, the “soluble on expression in E. coli” value is on record as “not soluble”.

As for “MSLTVRLRPHHLLCMLTYIGKGYTSGFVENYDRVAFRLNAGEDIELVEGADDVCEGLLCESHAHCFNDGIVQRDETARLSVSTLLGETLIAGKRLRVTPDFLAKMRLAFAAGDIRQACRGCQWIKLCDRIAASGFAGVKIGVPSQVVPKDATRHPMLRPKYGPSGRKLEGHHHHHH”, the “soluble on expression in E. coli” value is given as “not soluble”. As to “MSLTVSFVHLRLHTEFSLVDGLVRVKPLAKAVAGLGMPAVAVTDQSNMCSLVKFYKTAMGAGIKPICGADIWLASREEDGPLSRLSLLAMNAKGYRNLTELISRGWSEGQRNGEIIIERDWVKEAAEGLIALSAAKEGEIGHALLDGEEAKAEALLREWMEVFPERFYVEVQRTSRVNDEEHLHAAVALASRCNAPLVATNDVRFIKQEDFEAHETRVCIGEGRTLDDPRRPRTYSDQQYLKSPAEMAELFSDLPEALENTVEIAKRCNIEVQLGKYFLPDFPTPNGMGIDDYLRHASFEGLEERLEVLLPKDTPDYEAKRQVYVDRLNFELDIIIQMGFPGYFLIVMDFIKWAKNNGVPVGPGRGSGAGSLVAYVLKITDLDPLAYDLLFERFLNPERISMPDFDVDFCMEGRDRVIDYVADAYGRNAVSQIITFGTMAAKAVVRDVARVQGKSYGLADRLSKMIPFEVGMTLDKAYEQEEMLRDFLKSDEEAAEIWEMALKLEGITRGTGKHAGGVVIAPTKLTDFSPIACDEEGGGLVTQFDKDDVEAAGLVKFDFLGLRTLTIIKWAMEIINREQAKKGLEPVNIDFIPLDDKPTYSLLQKAETTAVFQLESRGMKELIKKLKPDCLEDLIALVALFRPGPLQSGMVDDFINRKHGRAELSYPHPDYQYAGLEPVLKPTYGIILYQEQVMQIAQVMAGYTLGGADMLRRAMGKKKPEEMAKQRGGFIEGCKNNGEGHHHHHH”, the “soluble on expression in E. coli” value was “not soluble”. As to “MSLVERARLAEGGGWDCHFHVFDASRYTLAAGSAYQPEDASLAAFRGVCRARGIGRAVLVHPSVYGADHSSYEDALAANGDWLRGVAVVYPDEATTPDARIEHWDLLGTAGTRINRLFPGAPQHPERIVERVKPFGWHVQVLTDIVEDIGLVRRIAARDVPVVVDHFGHHPHAQLLRSAGWQDLIALVREGAAWVKLSAPYRVGAQGPAWPGAQALVDQLVQANPRQLVWGSDWPHPPDHRHPFPAPDQAAIGATIAQWLPDAQLRRQVMELNPLRLYGGTRAAGREGHHHHHH”, the “soluble on expression in E. coli” value is on record as “soluble”. In the case of “MSLVKAISSNLGYPRLGEKREWKRALEKFWNGAISEEELLAETKALRLHALKKQQEKGIDLIPVGDFSFYDQVLDTSVTFGIIPKRFQHDGGKVSLNTYFDIARGKSDAVASEMTKWFNTNYHYIVPELADADPKVLDNRALYYYEEAKKELGIEGKPVLVGPVTYLKLGKGNDAENFEALLDKFIPAYVEILKELERAGAKWVQIDEPYLATSFDKSEIKLFEKVYQAFQTAVPNLKIELQTYFESLDYYEEVVNLPVAAIGIDFVHDHGDSLEALKAHGFPEDKYLAAGVIDGRNVWRSDLDAKLSLLTEIADYVTDGKLIVQPSNSLLHVPVTKLSEPDLDEVILGGLSFADQKLDEIAILTKALTDGAESVTAELEDARAAVTALNESSHRNNLEVQEAIANLGNVRVDRELPFAERIKLQHAWLNLPLFPTTTIGSFPQSPEVRKTRADWLKGNITDAEYNAFIEKETARWIKIQEELDIDVLVHGEFERTDMVEYFGQKLAGFQATKFGWVQSYGSRAVRPPLIYGDVAFTEEITVKESVYAQSLTKRPVKGMLTAPVTIINWSFVRDDVPESVVANQVGLALRKEVEALERNGIKVIQVDEPALREGLPLKQARWEKYLNDAVYSFKLTTASVQNDTQIHTHMCYSDFDDIIDTISALDADVISIETSRSHGEIISTFEEVTYDKEIGLGVYDIHSPRVPTVTEIQDNIRRALRAIDAKQFWINPDCGLKTRKEPETIAALQDMIKATKEVRAEYQVLEKEGHHHHHH”, the “soluble on expression in E. coli” value is listed as “soluble”. Next, “MSLVMSGEKMKVIIVEDEFLAQQELSWLINTHSQMEIVGSFDDGLDVLKFLQHNKVDAIFLDINIPSLDGVLLAQNISQFAHKPFIVFITAWKEHAVEAFELEAFDYILKPYQESRIINMLQKLTTAWEQQNNAAEGHHHHHH”: “soluble”; “MSLVNDITYGREAEVWPRDYSMLARRIQFLRFNDYPIKLVSSNGHSIIGYISKFNQKENMILASDEAKGNNRVEVKLESIASLEELLVGKDFTTRLIVGDVFNNQPCPPTKKDFFSICNKCFKQGIGIKVHMLDGRILTGKTTGVNACQVGIIKSNGNHMQIMFDWVSRITSSDYSGEGHHHHHH”: “soluble”; “MSLVTLGEGFEKARLTRFLEKFGGNEGSQFLYLKDYGHFYYQEEGEDQVLFGFQMKFNKCFVLADPIGQREKWTAATLAFMDQADLLGYQLVFYRISEEYVMNLHDCGFEFMKVGEEGLIQFDEPSTVNQTAWTETVTEKIAAEAADFQFEFYPETISDALYQELERVSADWSRNQKERYFIGGRLDPEYLKCSSVGLVRQKQTVIGFITGKEMEKGKSISYDLLRIRSDAPAFTREYLFTHFIETYQQQGYQLIDIGMAPLANVGESKYSFLKERFVNIFYKYSYQIYAFQDTRKRKEQYVTSWQPRYFAYPKRTSVLFAFVQLSLLITKGRHQSVSLVEEAMTEIEGHHHHHH”: “soluble”. Next, “MSLVVKVKQKIPLKIKRMGINGEGIGFYQKTLVFVPGALKGEDIFCQITAVKRNFAEAKLLTVNKASKNRVKPACSVYETCGGCQIMHLAYPKQLDFKDDVIRQALKKFKPTGYEQFEIRPTLGMKKPDHYRAKLQFQLRSFGGTVKAGLFSQGSHRLVPIDNCLVQDQLTQDIINKITQLVDKYKLPIYNERKIAGIRTIMVRKAQASDQVQIIVVSSKEVRLANFIGELTKAFPQVKTVALNSNRSKSSEIYGDETEILWGQEAIHEEVLDYGFALSPRAFYQLNPQQTEVLYGEVVKALDVGSKDHIIDAYCGVGSIGFAFAGKVKSVRGMDIIPEAIEDAQKNAKAMGFDNAYYEAGKAEDIISKWYKQGYRADAVIVDPPRTGLDDKLLKTILHYQPKQMVYVSCNTSTLARDLVQLTKVYDVHYIQSVDMFPHTARTEAVVKLQKRVEGHHHHHH”: “not soluble”; “MSLWHGVIVATSLPFDDDLSVDFGAYGESVAHLAAQGMHGVAPNGSLGEYQTLTYEERDRVVETAVANAPEGFTVMPGVGAYGGREAERHARFAKDAGCQAVMCLPPNAYRADDRAVLQHFERVASVGLPVTAYNNPIDTKVDLRPDLLAKLHAEGYIVGVKEFSGDVRRCYEISELAPGLDLMIGTDDTVLEVALAGAKGWVAGYPQVFPRACLALYEASVRGDLEAALPLYRQLHPVLRWDSKTEFVQAIKLGQELTGRRGGPCRPPRQPLAPETEAVVRAATQALVDAGVNEGHHHHHH”: “soluble”.

In the case of “MSLYEITQYRLPHLSESAEALCHADKRPVFVGDSAAKPGLQLQQDETRWHSARQHRWSTPLAHQLQRSVQRLLLADNCEGKLTVWVDDFYGSNDSRAVVAGHWEYKSQDSQTVLKGTFTESTPLKSDGYPALVNALDEAWLNVMDTISLGVGQKLAREGHHHHHH”, the “soluble on expression in E. coli” value is reported as “soluble”. Regarding “MSLYFSGEPAQIAEIKRLASGAVTPLYRRATNEGIQLFLAGSAGLLQTTEDVRFEPCPGLTAAGRGVVSPENIAFTRWLTHLQDGVLLDEQNCLMLHELWLQSGTGRRRWEELPDDARESITALFTPKRGDWCDIWSNEDVSVWWNRLCDNVLPEKTMPFDLLTVLSTRLDVEVNGFNGGVLNGVPSAYHWYTEQYGVKWPCGYEVNISSQGDNFIQVDFDTPWCQPESDVIAVLSRRFSCMLEHWYAGQGCNFCGWQRYERGELVDVLWGELEWSSPTDDDELPEVTAPEWIVDKVAHYGGEGHHHHHH”, the “soluble on expression in E. coli” value is “not soluble”.

Take “MSLYIPCLMCTQHPDSTVKITAGEEVDEAVVAFLAYGCDEVMVDYEGKATPYSQPRDVASKALALGLPLGERFFITPRVPNPRLEDFERSMLSLEAAVLANSYSQRAAGVQAVKWVVLPMTEDVETMAFVYKALDMKARDLAELNAVKRDSSIELIPLVEDAMRQIKIESFIKALFRTAAQSGRILEHMRIFLGISDSAVRHGHMASALAMVKALGQISEINRDGEFKISPIVGMGSPPFRGGLNNPHLAVPEAAQYAGYKTATIQSAVRYDVSYAEYQKVREAILSVYTPRRLHVEEAWITKASELYREAIRPYIGKIAELANAIPSTRDRVSWREYGRVIEGVEWRVPRAIVYTATWYFAGVPPTLLDARFIAWAYKNDLLDDVLRALPATVEEWKFESRFYSRERAEKTLGGEIVKDIDNAFDILGIKPEPDRTYITLLNSADTQPHAIALGRIRGFLGEGHHHHHH”: the “soluble on expression in E. coli” value is “not soluble”.
